Data set [1] deals with T1, mYOX1 (Naegleria gruberi) (UniProt D2W6T1).
T1 sequence: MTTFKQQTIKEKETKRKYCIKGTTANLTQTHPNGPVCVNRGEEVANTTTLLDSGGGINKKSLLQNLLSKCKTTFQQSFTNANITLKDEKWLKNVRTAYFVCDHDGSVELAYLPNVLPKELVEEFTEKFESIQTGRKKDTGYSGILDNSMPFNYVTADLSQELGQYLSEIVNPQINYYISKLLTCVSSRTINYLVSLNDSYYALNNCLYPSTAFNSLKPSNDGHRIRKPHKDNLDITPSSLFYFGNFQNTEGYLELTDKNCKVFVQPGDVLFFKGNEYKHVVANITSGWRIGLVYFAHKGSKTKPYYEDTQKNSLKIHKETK
To be noted: LC-MS, 20 uM mYOX1, Bis-TRIS pH 6.0, Fe(II), alpha-ketoglutarate.

Data set [2] deals with T1, mYOX1 (Naegleria gruberi). To be noted: LC-MS after NaBH4 reduction and T4-BGT, caC 29.3%, ghmC 67.7%, mC 3.0%.

Read-outs that look alike come from different tables or passages of the source.

IMR90 genomic DNA registered an activity (% 5mC oxidized) in data set [1] (caC 89.1%, hmC 1.7%, fC 8.7%, mC 0.5%) of 99.5.

Consider MG1655 genomic DNA, for which the activity (% 5mC oxidized) in data set [2] was determined as 97. pTXB1-M.SssI plasmid: the activity (% 5mC oxidized) in data set [1] (caC 91.2%, hmC 1.8%, fC 5.9%, mC 1.0%) was 99.
